Results on nine molecules are retold here after publication PMC4356366, “Structures of the human Pals1 PDZ domain with and without ligand suggest gated access of Crb to the PDZ peptide-binding groove” (Acta Crystallographica Section D: Biological Crystallography, 2015).

Values joined by “and” are separate entries in the source; they are usually repeats but may differ in a detail not shown here. Equal values may be shown once. “Also recorded” adds a separate entry of the source. Ends that are not written are not given here.

First the molecules themselves.
B2: fluorescein-labelled human Crb1 peptide, residues 1390-1406 (Crb^17) (peptide)
peptide: RVEMWNLMPPPAMERLI
modifications: also: fluorescein label, position not given here
notes: also called fluorescein-labelled Crb^17; Crumbs peptide (homologue 1)

Experiment [1] has as its target T1, human Pals1 PDZ domain (Pals1^PDZ; residues 251–335) (Homo sapiens, UniProt Q8N3R9).
T1 construct: the PDZ domain of human Pals1 (Pals1^PDZ; residues 251–335); GST (N, cleaved yes); made in house; host or cells: Escherichia coli FB810
T1 sequence (Q8N3R9 251-335): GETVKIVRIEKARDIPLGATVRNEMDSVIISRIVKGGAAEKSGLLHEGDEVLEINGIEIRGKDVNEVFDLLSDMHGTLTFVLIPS
The experiment in a line: Fluorescence polarization binding assay, fluorescein-labelled Crb peptides with Pals1^PDZ. The note with it: Fp, fluorescein-labelled peptide 50 nM, protein 0 to 300 µM, 20 mM HEPES pH 7.5, 100 mM NaCl, 1 mM DTT, read after 5 min; measured in parallel from the same Pals1 preparation; representative of three independent experiments. As for the experimental part:
Fluorescence polarization (Fp) assays were performed to determine the K d for each peptide following a previously described protocol (Guettler et al., 2008[▶]). Binding assays were performed in 20 mM HEPES pH 7.5, 100 mM NaCl, 1 mM DTT. The reaction mixtures contained a fixed concentration of fluorescein-labelled peptide (50 nM) and a protein concentration ranging from 0 to 300 µM depending on the dissociation constant. The 20 µl reactions were carried out in a 384-well plate and measured after 5 min using a Tecan Safire2 plate reader with excitation at 470 nm and emission at 525 nm. The anisotropy values were normalized and the K d values were determined using nonlinear regression with the graphics program Prism (Heyduk & Lee, 1990[▶]).
To characterize the interaction between the PDZ domain of human Pals1 (Pals1^PDZ; residues 251–335) and the intracellular segment of human Crb1 in vitro, we used fluorescence polarization (Fp) assays with a fluorescein-labelled peptide containing 17 carboxy-terminal residues 1390–1406 (defined hereafter as Crb^17). […] The Pals1^PDZ–Crb^17 interaction was stable to size-exclusion chromatography as detected from the Crb^17 intrinsic tryptophan fluorescence (data not shown). […]
(In general: Fluorescence polarisation rises when a labelled molecule tumbles more slowly, as on binding a larger partner.)

Experiment [2] concerns the target T2, human Pals1 PDZ domain (Pals1^PDZ; residues 251-335), wild type (human, UniProt Q8N3R9 251-335).
T2 chain: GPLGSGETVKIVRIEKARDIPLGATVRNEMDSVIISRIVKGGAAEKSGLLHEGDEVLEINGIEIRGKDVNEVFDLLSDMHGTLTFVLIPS
Put plainly: FP.

In experiment [3] the target is T3, human Pals1 PDZ domain (Pals1^PDZ; residues 251-335), wild type (human, UniProt Q8N3R9 251-335).
T3 construct: vector-derived residues Gly-Pro-Leu-Gly-Ser at the amino-terminus of Pals1^PDZ, left after removal of GST; Pals1 (MPP5), human, PDZ domain, residues 251-335; also called MPP5; protein associated with Lin-7; source: E. coli FB810, purified (glutathione Sepharose 4B, GST removed with GST-3C protease, Superdex S75)
T3 sequence: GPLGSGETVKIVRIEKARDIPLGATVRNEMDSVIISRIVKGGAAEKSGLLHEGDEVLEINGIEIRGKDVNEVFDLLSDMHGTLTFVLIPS
The experiment in a line: fluorescence polarisation; fixed fluorescein-labelled peptide (50 nM), Pals1 PDZ protein titrated 0 to 300 µM; 20 mM HEPES pH 7.5, 100 mM NaCl, 1 mM DTT; 20 µl in 384-well plate, read after 5 min. The note with it: both partners purified.

Experiment [4] concerns the target Individual Crb^17 substitutions E1403A, R1404A and L1405A. The experiment is described as above.
The target in experiment [5] is T4, human Pals1 PDZ domain F318A mutant (human, UniProt Q8N3R9 251-335, F318A).
T4 sequence: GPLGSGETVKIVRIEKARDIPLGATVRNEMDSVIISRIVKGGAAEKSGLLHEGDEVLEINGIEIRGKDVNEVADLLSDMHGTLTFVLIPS
Put plainly: FP.

The target of experiment [6] is T5, human Pals1 PDZ domain F318C mutant (human, UniProt Q8N3R9 251-335, F318C).
T5 construct: Pals1 (MPP5), human, PDZ domain, residues 251-335, F318C; The methods name only the wild type and F318A; also called Pals1^PDZ F318C
T5 sequence (looked up): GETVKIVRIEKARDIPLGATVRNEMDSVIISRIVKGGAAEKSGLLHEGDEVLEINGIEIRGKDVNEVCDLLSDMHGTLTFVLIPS
The experiment in a line: fluorescence polarisation; fixed fluorescein-labelled peptide (50 nM), Pals1 PDZ protein titrated 0 to 300 µM; 20 mM HEPES pH 7.5, 100 mM NaCl, 1 mM DTT; 20 µl in 384-well plate, read after 5 min. The note with it: both partners purified.

For experiment [7], the target named is B2. The experiment is described as above. The following applies: both partners purified.

For orientation: Kd means the free concentration of one partner at which half of the binding sites on the other are occupied at equilibrium, for simple one-to-one binding. High values mean lower affinity, low ones higher affinity.

For the molecule “Crb^17 I1406A: Crb^17 peptide with carboxy-terminal Ile1406 replaced by alanine, fluorescein-labelled (RVEMWNLMPPPAMERLA; also: fluorescein label, position not given here)”, the “dissociation constant (Kd) for Pals1^PDZ” value in experiment [1] is given as “completely abolished detectable binding; also recorded: Not detectable”. RVEMWNLMPPPAMARLI (also: fluorescein label, position not given here) [fluorescein-labelled Crb^17 E1403A]: in experiment [2], the Kd came out at 53.1 µM. The binding result in experiment [3] is “binds”. The like results for AMERLI (also: fluorescein label, position not given here) [fluorescein-labelled shorter Crb1 peptide spanning residues 1401-1406 (Crb^6)] were, in that order, 16.8 µM and “binds”. The corresponding values for RVEMWNLMPPPAMEALI (also: fluorescein label, position not given here) [fluorescein-labelled Crb^17 R1404A] are 51.5 µM and “binds”. In experiment [2], RVEMWNLMPPPAAERLI (also: fluorescein label, position not given here) [fluorescein-labelled Crb^17 M1402A] returned a Kd of 8.1 µM. Besides, the binding result in experiment [3] was “binds”.

B1: human Pals1 PDZ domain (Pals1^PDZ; residues 251-335), wild type (domain or fragment)
chain: GPLGSGETVKIVRIEKARDIPLGATVRNEMDSVIISRIVKGGAAEKSGLLHEGDEVLEINGIEIRGKDVNEVFDLLSDMHGTLTFVLIPS
Molecule B1 had a Kd in experiment [4] of 52 to 55 µM. RVEMWNLMPPPAMERAI (also: fluorescein label, position not given here) [fluorescein-labelled Crb^17 L1405A]: the Kd in experiment [2] came out at 55.3 µM. In experiment [3], the binding result was “binds”. Consider B2, for which the Kd is 1.8 µM in experiment [5]; 9.2 µM and 12.4 µM in experiment [3]; 5 µM in experiment [6].

B3: human Pals1 PDZ domain F318A mutant (domain or fragment)
chain: GPLGSGETVKIVRIEKARDIPLGATVRNEMDSVIISRIVKGGAAEKSGLLHEGDEVLEINGIEIRGKDVNEVADLLSDMHGTLTFVLIPS
notes: vector-derived residues Gly-Pro-Leu-Gly-Ser at the amino-terminus of Pals1^PDZ, left after removal of GST (told for the wild type, same preparation); Pals1 (MPP5), human, PDZ domain, residues 251-335, F318A; also called Pals1^PDZ F318A; source: E. coli FB810, purified (glutathione Sepharose 4B, GST removed with GST-3C protease, Superdex S75)
With B3, in experiment [7], the “fold tighter binding than wild-type Pals1^PDZ” value is 5 fold.
